This passage reports Ccl19 promoter-driven luciferase activity in HEK293T cells co-transfected with TAZ4SA and p52 (p52 alone: 7.5-fold) results from article PMC6981200.

This assay addresses streptavidin-binding peptide-tagged constitutively active form of TAZ (SBP-TAZ4SA) (human) (UniProt Q9GZV5).
UniProt Q9GZV5, sequence (Q9GZV5 whole entry): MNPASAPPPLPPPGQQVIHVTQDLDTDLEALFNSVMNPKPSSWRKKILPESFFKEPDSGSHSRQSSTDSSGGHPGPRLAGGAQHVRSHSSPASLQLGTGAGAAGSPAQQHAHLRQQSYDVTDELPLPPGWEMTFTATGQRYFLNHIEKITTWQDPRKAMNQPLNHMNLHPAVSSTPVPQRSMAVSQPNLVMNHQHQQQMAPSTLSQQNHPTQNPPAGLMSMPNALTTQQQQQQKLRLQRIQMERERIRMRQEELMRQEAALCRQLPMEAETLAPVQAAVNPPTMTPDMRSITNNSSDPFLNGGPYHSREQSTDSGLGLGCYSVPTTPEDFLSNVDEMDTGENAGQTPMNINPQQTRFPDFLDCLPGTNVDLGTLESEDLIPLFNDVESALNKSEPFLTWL

Consider “Flag-p52 (from UniProt Q9WTK5 1-454) (natural protein)”, for which the Ccl19 promoter-driven luciferase activity in HEK293T cells co-transfected with TAZ4SA and p52 (p52 alone: 7.5-fold) worked out at 13.5 fold.
